Test results taken from the nanobody polyreactivity screen of Harvey et al. (2022).

assay: yeast display, Sf9 membrane polyspecificity reagent, FACS + sequencing; frameworks hold sequencing errors
How it was run: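 A synthetic nanobody library was expressed on Saccharomyces cerevisiae BJ5465 by galactose induction for 36–48 hours. The library was stained for 1 hour at 4 °C with 10% biotinylated, detergent-solubilized Sf9 membrane reagent and enriched with streptavidin microbeads before FACS. Low and high (top ~1%) gates were set on anti-HA fluorescence for expression and streptavidin fluorescence for reagent binding, and each polyreactivity label reflects the gate of origin.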

Row | Sequence | polyreactivity (PSR sort gate)
1 | QDQLVESGGGLVQAGGTLSLSSAASVIIFYDNAMGWSRQAPGKEREYVAAISRSGTTTYYADSVKGRFTISRDNAKNTVYLQMNSLKPEDTAVYYCAARWVYYHAIFEYWGQGTQVTVSS | high polyreactivity
2 | QDQLVESGGGLVQAGVSLRISCAASGYIFGFYARGWYRQAPGIERELVAAISKSGGNTYYADSVKGRFTISRDNANNTVSLQMNSLKPEDTAVYYCAADSYRYKYNYWGQGTQVTGSS | high polyreactivity
3 | QDQLVESGGGLVQARGSLRLSCAASGSIYSRNALGWYRQAPGKERELVAAITYRGGNTYYADSVKGRFTISRDNANNNLYLQMNSLKPEDTAVYYCAADTYGWLYAFEYWGQGTQVTVSS | low polyreactivity
4 | QDQLVESGGGLVQEGGSLRLSCAASGRIFYFNARGWYRQAPGKERELVADISSGGRTNYADSVKGRFTFSRDNAKNSVYVQMNSEKPEDTAVYYCNSEPYTSSGGYRGYDFDYWGQGSQVTVSS | low polyreactivity
5 | QDQLVESGGGLVQEGGSLRLSCAASGRTFKHYVMGWYRQAPGKERELVATICGGGGTYYADSVKGRFTISRDNAKNSVYLQMISLKPEDTAVYYCAARYPRGSRTWSFDSNKQRDYWGQGTQVTVSS | low polyreactivity
6 | QDQLVESGGGLVQGGGSLRLSCAASGRIFSPYAMGWYRQAPGKEREVVAAITSASSTYYADSVKGRFTISRDNAKNTVYLQMNSLKPEDTAVNYCAASYWRYGSAFDYWGHGTQVTVSS | high polyreactivity
7 | QDQLVESGGGLVQSGGSLRLSCAASGSTFYYYAMGWYRQAPGKERELVAAITSSTGRTYYADSVKGRFTISRDNAKYTVYLQMNSLKPEDTAVYYCITRRGSLSGLYVYSIQGYDYWGQGTQVTVSS | low polyreactivity
8 | QDQLVESGGGTVQAGGSLRISCAASGSILRSNAMGWYRQAPAKERELVAAITQSGGSTFYADSVKGRFTITRDNAKNTVYLQMNSLKPEDTAVYYWGQGTQVTVSS | low polyreactivity
9 | QDQLVESGGGVVQAGGSLRLSCAASGRISIWYAMGWYRQAPGKERELVARISTSSGRTYYADSVKGRFTISRDNAKNTVYLQMNSLKPEDTAVYYCNAAGYRIYFSTRYDYWGQGTQVTVSS | high polyreactivity
10 | QDQLVESGGVLVQAGGSLRLSCAASGRIFVYNAMGWYRQAPGKERELVATIDYSGGSTYYADSVKGRFTNSRDYAKNTVYLQINSLKPEDPAVYYCNADWSVYAYDSWGQGTQVTVSS | low polyreactivity
11 | QDQLVESGPGLVQAGGSLRLSCAPSGRIFTVYAMGWYRQAPGKERELVAAIDWSDGSTYYADSVKGRFTISRDNAKNTVYLHMNSLKPEATAVYYCAAETYWVVEYDYWGQGTQVTVSS | high polyreactivity
12 | QDQLVESGRGLVQAGGSLRLSCAASASIFTKYTMVWYRQAPGKERELVAAITLRGTSTYYADSVKGRFTISRDNAKKTVYLQKNSLKPEDTAVYYCNILYSWVVAYDYWGQGTQVTLSS | high polyreactivity
13 | QDQLVESGRGLVQAGGSLRLSCAASGSTFSYYAIGWYRQAPGKERELVAAISRRGGSTYYADSVKGRFTISRDNAKNSVYLQMNSLKPEDTAVYYCNRVTYTGYDSWGQGTQVTVSS | high polyreactivity
14 | QDQLVESGVGIVQAGRSLRLSCAASGFTFSGYAMGWDRQAPGKERELVAAINWRGDSTYYADSVKGRFTISRDNAKNTVYLQMNSLKPEDTAVYYCNVVLGPQRYSTDYGYWGQGTQVTVSS | high polyreactivity
15 | QDQLVESGVGLVQAGGSHRLSSAASGSTFRRNTMGWYRQAPGKERELVAAISNGGRTYYADSVKGRFTISRDNAKNTVYLQMNRLKPEDTAVYYCNKVRSPWYDSWGQGTQVTVSS | high polyreactivity
16 | QDQLVESGVGLVQAGGSLRLSCAASGRTFYYNTMGWYRPAPGKETEFVATITSTHDTNYADSVKGRFTISRDNAKNSVYLQMNSLKPEDTAVYYCAKGYLNYGRDWDFDYWGHGTQVTVSS | low polyreactivity
17 | QDQLVESGVGLVQAGGSLRLSCAASGSIFHGNAMGWYRQAPGKERELVATISSGGSTYYADSVKGRFTISRDNAKNTVYLQMNSLKPEDTAVYYCAAERFWPYKSYYWGQGTQVTVSS | low polyreactivity
18 | QDQLVESGVGLVQEGGSLRLSCAASGSILKRYVMGWYRQAPGKERELVAAISSGSRTYYADSVKGRFTISRDNAKNTVYLQMNSLKPEDTAVYYCAADLTYKYHYDYWGQGTQVTVSS | high polyreactivity
19 | QDQLVESRAGLVQAGGSLRLSCADTGNIFDFNAIGSYRQAPGKERELVAAISQRGTRTYYADSVKGRFTISRDNAKNTVYLQMKSLKPDYTAVYYCNRGGWRQYDSWGQGTQVTVSS | high polyreactivity
20 | QDQLVESVGGLDQAGGSLRLSCAASGLIFQSYVMGWYRQAPGKERELVAAISSSVGSTHYADSVKGRFTISRDNAKNTVYLQMNSLKPEDTAVYYCAVEDYYADSGVEYDYWGQGTQVTVSS | low polyreactivity
21 | QDQLVESVGGLVQAGGSLRLSCAASGRTLVRYVMGWYRQAPGKERELVAAISARTGSTYYADSVKGRFTISRDNAKNTVYLQMNSLKPEDTAVYYCATKFSSYDTRVSYDYWGQGTQVTVSS | low polyreactivity
22 | QDQLVESVVGLVQAGGSLSLSCDSSARTFWYNAMGCYRQAPGKEREFVAAISSSGGTTYYADSVKGRFTISRDNAKNTVYLQMNSLKPEDTAVYYCAKRFSLLSTVRWGRYNYWGQGTQVTVSS | high polyreactivity

Row | Sequence | polyreactivity (PSR sort gate)
23 | QDQLVESWGGLVQAGGSLRLICASSGSNIGYNAMGWYRPAPVKERELVAAISYSGGSTYYADSVKGRFTISRDNAKNTVYFRMNSLKPEDTAVYYCNKYIRRYLIYGSWGQGSQVTVSS | high polyreactivity
24 | QDQLVESWGGLVQAVGSLRLSCAASGSTFEDYGMGWNRQAPGKERQFVAAIRYSGSSKYADSVKGRFTISRDNAKNTVFLLMKSLIPEDTAVYYCAKYGVRVGFGYSSEYFGQGTQVTVSS | low polyreactivity
25 | QDQLVETGVGLVQAGGSLLLSCAPSAITFRGYAMGWYRQAPGKEREYVAAITSGSSTYYADSVKGRFTISRDNAKNTVYLQMNSLKPEDTAVYYCAAERTKSFKLTRPGSMDYWGQGTQVTVSS | low polyreactivity
26 | QDQLVQSGLGLVQAGGSLRLSCAASGITFYWYTIAWYRQATGKERELVAAISRRGGSTSYADSVKGRFTISRDNAKNTVYLQMNSLKPEDTAVYYCAKTPGWTDYDYWGQGTQVTVSS | high polyreactivity
27 | QDQQVESGGGLVQAGGSLRLSSAASGRTFGTYALGWYRQARGNERELVAAITKSGGSTYYADSVKGRFIISRDNAKNTVYLQMNSLKPEDTAVYYCAAAVPRYRVYYWGQGTQVTVSS | high polyreactivity
28 | QDQRVESGGGLVQAGGSLRLSCAASGRIFSWYAMGWYRQAPGQERELVAAIDSGGRTNYADSVKGRFTISRDNAKNTVYLQMNSLKPEDTAVYYCAKEGYWPRYWERFDYWGQGTQVTVSS | low polyreactivity
29 | QDQRVESGGGLVQAGGSLRLSCAASGRTISVYAMGWYRQAPGKERELVAAIRTSGGITYYADSVKGRFTISRDNAKNTVYLQMNSLKPEDTAVYYCAAETFRHDSYTRYYYWGQGTQVTVSS | high polyreactivity
30 | QEQHVESAGGLVQAGGSLRLSCAASASIIYKYAMGWYRQAPGKERELVAAINSGGRTYYADSVKGRFTISRDNAKNTVYLQMNSLKPEDTAVYYCNAGTYYPGRYDYWGQGTQVTVSS | high polyreactivity
31 | QEQLQESGGGLGQAGGSLRLSCAASGSISSDVLMGWHRQAPGKERELVAAIGIGANTYYADSVKGRFTISRDNAKNTVYPQMNSLKPEDTAVYYCATGRYSGADNYWGQGTQVTVSS | high polyreactivity
32 | QEQLQESGGGLVQAGGSLRLSCAASGNITLDTAMGWSRQAPRKEREFVASINDGGITNYADSVKGRFTICRDNAKNSVYLQMNSLKPEDTAVFYCAARWIWRGYDYWGQGTQVTVSS | high polyreactivity
33 | QEQLQESGGGLVQAGGSLRMSCAASGTIFSEANKGWYRQAPGKERELVATIGQGSTTNYADSVKGRFTISRDNAKNTVYLQMNSLKPEETAVYYCAVVTVDPVGFVYWGQGTQVTVSS | low polyreactivity
34 | QEQLQESGGGQVQAGGSLLLSCAASGNIIRYYYMGWYRQAPGKERELVAAINVGAITYYADSVKGRFSISRDNAKNTVYLPMNSLTPEDTAVYYCAVDQYSEAYYDYWGQGTQATVSS | high polyreactivity
35 | QEQLQESVVCQVQAGRSLHLSCAASGNIIRYSYMGWYRQAPGNERELVAAITYGTSTNYADSVKGRFTISRDHAKNTVYLQMTSLKPEDTAVYYCAVDVNYGDPLDNWCQGTQVTVSS | high polyreactivity
36 | QEQLVESGGGIVQAGGTLRLSGADSGSIFVKNAMGWYRQAHGKERQWVARITYSGGSTYYADSVKGRFTISRDNAKNTVYLQMNSLKPEDTAVYYCAARYWYFPQPYYPGNDYWGQGTQVTVSS | high polyreactivity
37 | QEQLVESGGGLVQAGGSLRLSCAASGSIRYYAMGWDRQAPGKESELVATITRGGSTYYADSVKGRFTISRDNAKNTVYLQMNSLKPEDTAVYYCAARRAVRVGYYWHDISSYDYWGQGTQVTVSS | low polyreactivity
38 | QEQLVESGGGLVQAGGTLRLSCDASVSTQWYNAMGWYRQAPGKERELVATITAGGGSTYYADSVKGRFTISRDNAKNTVYLQMNSLKREDTAVYYCATRYTPAQLDYWGQGTQVTVSS | low polyreactivity
39 | QEQLVETVVGLVQARGSLRLRSAASGITFRKYAMRWYRQAPGKERDFVAAITRGGRTYYADSVKGRFTISRENAKNTVYLQMNSLKPEDTAVYYCAACTVVYAGSTYLQPFDYWGQGTQVTVSS | high polyreactivity
40 | QFHLVESCGGLVQAGGSLRLSCAASGIIFSTYFMGWYIQAPGKERELVAAISSRGFSTYYADSVKGRFTISRDNAKKTVYLQMNSLIPEDTAVYYCAARYYYSRSRLYYYWGQGTQVTVSS | high polyreactivity
41 | QFQLEESGGGLVQAGGSLRLSCAASGNIFFTNAMGRYRQAPGNERELVATITFRGTSTYYADSVKGRFTISRDNAKNTVYLQMNCLKPEDTAVYYCTARYSVFHRARVNLLGWGLYYWGQGTQVTVSS | low polyreactivity
42 | QFQLEESGGGLVQAGGSLRLSCAASGRIFPTYTRGWYSQAPGKERVLVAGISYSGTSTSYADSVKGRFTMSRDNAKNSVYLELNSLKPEDTAVYYCAAKYYGRSFYYGYDYWGQGTQVTVSS | low polyreactivity
43 | QFQLEESGRGLVQAGGSLRLSCAASGSTLSYNAMGCYRQAPGKERELVAAISGRGGSTSYADSVKGRFTITRDNAKKTVYLQMNRLKPVDTAVYYCIAGKYSSSAALYDYWGQGTQVTVSS | high polyreactivity
